Experiments:
HLA-A*01:01 = assay: IEDB peptide-MHC binding, purified MHC/direct/fluorescence; filed as Kd, often an IC50 or EC50 that approximates it; ≥ and ≤ were set here for values at or beyond the usual limits of such assays
HLA-A*02:01 [1] = assay: as above
HLA-A*03:01 = assay: as above
HLA-A*26:03 [2] = assay: as above; conditions: source organism: Lyssavirus rabies
HLA-A*68:02 [3] = assay: as above; conditions: source organism: Lyssavirus rabies
HLA-A*69:01 [4] = assay: as above; conditions: source organism: Lyssavirus rabies
HLA-B*07:02 = assay: as above
HLA-B*08:01 = assay: as above; conditions: source organism: Lyssavirus rabies
HLA-B*15:01 [5] = assay: as above
HLA-B*18:01 [6] = assay: as above
HLA-B*27:05 = assay: as above
HLA-B*48:01 = assay: as above
HLA-B*57:01 [7] = assay: as above
HLA-B*58:01 = assay: as above
HLA-B*73:01 = assay: as above; conditions: source organism: Lyssavirus rabies
HLA-A*02:06 = assay: IEDB peptide-MHC binding, purified MHC/competitive/fluorescence; filed as Kd, often an IC50 or EC50 that approximates it; ≥ and ≤ were set here for values at or beyond the usual limits of such assays
HLA-A*11:01 [8] = assay: as above; conditions: source organism: Lyssavirus rabies
HLA-A*30:01 = assay: as above; conditions: source organism: Lyssavirus rabies
HLA-A*31:01 [9] = assay: as above; conditions: source organism: Lyssavirus rabies
HLA-B*15:09 = assay: as above; conditions: source organism: Lyssavirus rabies
HLA-B*15:17 = assay: as above
HLA-A*11:01 [10] = assay: IEDB peptide-MHC binding, purified MHC/direct/fluorescence; filed as Kd, often an IC50 or EC50 that approximates it; ≥ and ≤ were set here for values at or beyond the usual limits of such assays; conditions: source organism: Marburg virus - Musoke, Kenya, 1980
HLA-A*31:01 [11] = assay: as above; conditions: source organism: Marburg virus - Musoke, Kenya, 1980
HLA-B*08:02 = assay: as above; conditions: source organism: Ravn virus - Ravn, Kenya, 1987
HLA-B*40:01 = assay: as above; conditions: source organism: Marburg virus - Musoke, Kenya, 1980
HLA-B*46:01 [12] = assay: as above; conditions: source organism: Marburg virus - Musoke, Kenya, 1980
HLA-A*02:01 [13] = assay: IEDB peptide-MHC binding, purified MHC/competitive/fluorescence; filed as Kd, often an IC50 or EC50 that approximates it; ≥ and ≤ were set here for values at or beyond the usual limits of such assays; conditions: source organism: Orthomarburgvirus marburgense
HLA-A*26:02 = assay: as above; conditions: source organism: Orthomarburgvirus marburgense
HLA-A*26:03 [14] = assay: as above; conditions: source organism: Orthomarburgvirus marburgense
HLA-A*68:02 [15] = assay: as above; conditions: source organism: Orthomarburgvirus marburgense
HLA-A*69:01 [16] = assay: as above; conditions: source organism: Orthomarburgvirus marburgense
HLA-B*35:01 = assay: as above; conditions: source organism: Orthomarburgvirus marburgense
HLA-A*24:03 = assay: IEDB peptide-MHC binding, purified MHC/direct/fluorescence; filed as Kd, often an IC50 or EC50 that approximates it; ≥ and ≤ were set here for values at or beyond the usual limits of such assays; conditions: source organism: Zaire ebolavirus
HLA-A*03:19 = assay: IEDB peptide-MHC binding, purified MHC/competitive/fluorescence; filed as Kd, often an IC50 or EC50 that approximates it; ≥ and ≤ were set here for values at or beyond the usual limits of such assays; conditions: source organism: Zaire ebolavirus
HLA-A*26:01 = assay: as above; conditions: source organism: Zaire ebolavirus
HLA-B*15:01 [17] = assay: as above; conditions: source organism: Zaire ebolavirus
HLA-B*15:42 = assay: as above; conditions: source organism: Zaire ebolavirus
HLA-B*18:01 [18] = assay: as above; conditions: source organism: Zaire ebolavirus
HLA-B*27:03 = assay: as above; conditions: source organism: Zaire ebolavirus
HLA-B*39:01 = assay: as above; conditions: source organism: Zaire ebolavirus
HLA-B*45:06 = assay: as above; conditions: source organism: Zaire ebolavirus
HLA-B*46:01 [19] = assay: as above; conditions: source organism: Zaire ebolavirus
HLA-B*57:01 [20] = assay: as above; conditions: source organism: Zaire ebolavirus
HLA-B*83:01 = assay: as above; conditions: source organism: Zaire ebolavirus
HLA-C*06:02 = assay: as above; conditions: source organism: Zaire ebolavirus
[21] = source organism: Lyssavirus rabies
[22] = source organism: Marburg virus - Musoke, Kenya, 1980
[23] = source organism: Orthomarburgvirus marburgense

Sequence: RQMKSGGRF
- Kd (HLA-A*01:01; [21]): ≥ 20 µM
- Kd (HLA-A*02:01 [1]; [21]): ≥ 20 µM
- Kd (HLA-A*03:01; [21]): ≥ 20 µM
- Kd (HLA-A*26:03 [2]): ≥ 20 µM
- Kd (HLA-A*68:02 [3]): ≥ 20 µM
- Kd (HLA-A*69:01 [4]): ≥ 20 µM
- Kd (HLA-B*07:02; [21]): ≥ 20 µM
- Kd (HLA-B*08:01): ≥ 20 µM
- Kd (HLA-B*15:01 [5]; [21]): 0.119 µM
- Kd (HLA-B*18:01 [6]; [21]): ≥ 20 µM
- Kd (HLA-B*27:05; [21]): 0.275 µM
- Kd (HLA-B*48:01; [21]): 1.62 µM
- Kd (HLA-B*57:01 [7]; [21]): ≥ 20 µM
- Kd (HLA-B*58:01; [21]): ≥ 20 µM
- Kd (HLA-B*73:01): ≥ 20 µM
- Kd (HLA-A*02:06; [21]): 0.476 µM
- Kd (HLA-A*11:01 [8]): ≥ 20 µM
- Kd (HLA-A*30:01): ≥ 20 µM
- Kd (HLA-A*31:01 [9]): ≥ 20 µM
- Kd (HLA-B*15:09): ≥ 20 µM
- Kd (HLA-B*15:17; [21]): 0.631 µM

Sequence: TVLEFILQK
- Kd (HLA-A*01:01; [22]): ≥ 20 µM
- Kd (HLA-A*03:01; [22]): 0.141 µM
- Kd (HLA-A*11:01 [10]): 0.0023 µM
- Kd (HLA-A*31:01 [11]): 0.119 µM
- Kd (HLA-B*07:02; [22]): ≥ 20 µM
- Kd (HLA-B*08:02): ≥ 20 µM
- Kd (HLA-B*15:01 [5]; [22]): ≥ 20 µM
- Kd (HLA-B*18:01 [6]; [22]): ≥ 20 µM
- Kd (HLA-B*27:05; [22]): ≥ 20 µM
- Kd (HLA-B*40:01): ≥ 20 µM
- Kd (HLA-B*46:01 [12]): ≥ 20 µM
- Kd (HLA-B*48:01; [22]): ≥ 20 µM
- Kd (HLA-B*57:01 [7]; [22]): ≥ 20 µM
- Kd (HLA-B*58:01; [22]): ≥ 20 µM
- Kd (HLA-A*02:01 [13]): 1.17 µM
- Kd (HLA-A*02:06; [23]): 0.776 µM
- Kd (HLA-A*26:02): ≥ 20 µM
- Kd (HLA-A*26:03 [14]): ≥ 20 µM
- Kd (HLA-A*68:02 [15]): 3.88 µM
- Kd (HLA-A*69:01 [16]): 0.827 µM
- Kd (HLA-B*15:17; [23]): ≥ 20 µM
- Kd (HLA-B*35:01): ≥ 20 µM

Sequence: VLYHRYNLV
- Kd (HLA-A*02:01 [1]; source organism: Sudan ebolavirus - Maleo (1979)): 0.0181 µM
- Kd (HLA-A*24:03): ≥ 20 µM
- Kd (HLA-A*03:19): 0.0044 µM
- Kd (HLA-A*26:01): ≥ 20 µM
- Kd (HLA-B*15:01 [17]): ≥ 20 µM
- Kd (HLA-B*15:17; source organism: Zaire ebolavirus): ≥ 20 µM
- Kd (HLA-B*15:42): ≥ 5 µM
- Kd (HLA-B*18:01 [18]): ≥ 20 µM
- Kd (HLA-B*27:03): ≥ 20 µM
- Kd (HLA-B*39:01): ≥ 20 µM
- Kd (HLA-B*45:06): ≥ 5 µM
- Kd (HLA-B*46:01 [19]): ≥ 20 µM
- Kd (HLA-B*57:01 [20]): ≥ 20 µM
- Kd (HLA-B*83:01): ≥ 5 µM
- Kd (HLA-C*06:02): 0.804 µM

From the Immune Epitope Database (IEDB)
